Test results as given in US20130115220A1 (DAINIPPON SUMITOMO PHARMA, published 2013).

T1: keto acyl synthase (KS) domain of FAS labeled with Flag at the N-terminal (UniProt P19096 1-406, limits assumed)
T1 construct: domain: keto acyl synthase (KS); Subcloned into pFLAG-CMV2 from the full-length FAS cDNA
T1 sequence (looked up): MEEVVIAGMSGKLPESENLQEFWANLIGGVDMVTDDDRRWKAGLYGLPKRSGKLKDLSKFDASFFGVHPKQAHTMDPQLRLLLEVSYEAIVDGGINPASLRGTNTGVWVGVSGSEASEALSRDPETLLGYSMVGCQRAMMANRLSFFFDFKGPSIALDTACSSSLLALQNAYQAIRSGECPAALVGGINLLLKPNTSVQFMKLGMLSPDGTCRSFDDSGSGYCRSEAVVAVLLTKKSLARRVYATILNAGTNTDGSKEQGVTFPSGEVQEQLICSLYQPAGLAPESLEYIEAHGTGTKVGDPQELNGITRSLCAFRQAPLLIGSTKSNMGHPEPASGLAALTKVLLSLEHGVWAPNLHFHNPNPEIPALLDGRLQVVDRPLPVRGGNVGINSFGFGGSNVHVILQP

T2: malonyl/acetyl transferase (MAT) domain of FAS labeled with Flag at the N-terminal (UniProt P19096 429-817, limits assumed)
T2 construct: domain: malonyl/acetyl transferase (MAT); Subcloned into pFLAG-CMV2 from the full-length FAS cDNA
T2 sequence (looked up): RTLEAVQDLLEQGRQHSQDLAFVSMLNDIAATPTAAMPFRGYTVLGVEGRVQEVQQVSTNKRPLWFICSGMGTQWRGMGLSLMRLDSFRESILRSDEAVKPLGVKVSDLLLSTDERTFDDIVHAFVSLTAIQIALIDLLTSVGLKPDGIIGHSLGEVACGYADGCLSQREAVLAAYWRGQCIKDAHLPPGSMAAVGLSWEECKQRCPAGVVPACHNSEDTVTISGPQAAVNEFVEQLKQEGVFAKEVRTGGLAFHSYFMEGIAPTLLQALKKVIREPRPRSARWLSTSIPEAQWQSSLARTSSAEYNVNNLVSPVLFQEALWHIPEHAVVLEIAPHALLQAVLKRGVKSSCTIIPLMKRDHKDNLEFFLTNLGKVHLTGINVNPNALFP

B1: recombinant AIM protein (rAIM) of mouse labeled with HA-tag (ligand)
chain: ESPTKVQLVGGAHRCEGRVEVEHNGQWGTVCDDGWDRRDVAVVCRELNCGAVIQTPRGASYQPPASEQRVLIQGVDCNGTEDTLAQCELNYYVFDCSHEEDAGAQCENPDSDLLFIPEDVRLVDGPGHCQGRVEVLHQSQWSTVCKAGWNLQVSKVVCRQLGCGRALLTYGSCNKNTQGKGPIWMGKMSCSGQEANLRSCLLSRLENNCTHGEDTWMECEDPFELKLVGGDTPCSGRLEVLHKGSWGSVCDDNWGEKEDQVVCKQLGCGKSLHPSPKTRKIYGPGAGRIWLDDVNCSGKEQSLEFCRHRLWGYHDCTHKEDVEVICTDFDV
notes: also called rAIM-HA; AIM-HA; not shown: HA-tag
B2: acylcarrier protein (ACP) domain of FAS labeled with Flag at the N-terminal (enzyme, UniProt P19096 2112-2192, looked up, not shown: small tags and cut ends)
chain: HGDGDTQRDLVKAVAHILGIRDLAGINLDSTLADLGLDSLMGVEVRQILEREHDLVLPMREVRQLTLRKLQEMSSKTDSAT
notes: domain: acylcarrier protein (ACP); Subcloned into pFLAG-CMV2 from the full-length FAS cDNA
B3: keto reductase (KR) domain of FAS labeled with Flag at the N-terminal (enzyme, UniProt P19096 1857-2111, looked up, not shown: small tags and cut ends)
chain: VLPGAQPTLISAISKTFCPAHKSYIITGGLGGFGLELARWLVLRGAQRLVLTSRSGIRTGYQAKHIREWRRQGIQVLVSTSNVSSLEGARALIAEATKLGPVGGVFNLAMVLRDAMLENQTPELFQDVNKPKYNGTLNLDRATREACPELDYFVAFSSVSCGRGNAGQTNYGFANSTMERICEQRRHDGLPGLAVQWGAIGDVGIVLEAMGTNDTVIGGTLPQRISSCMEVLDLFLNQPHAVLSSFVLAEKKAVA
notes: domain: keto reductase (KR); Subcloned into pFLAG-CMV2 from the full-length FAS cDNA

Experiments:
Experiment in all cases: co-immunoprecipitation of Flag-tagged FAS domains with AIM-HA in HEK293T cells
[1] = target: T1, keto acyl synthase (KS) domain of FAS …
[2] = target: T2, malonyl/acetyl transferase (MAT) domain …
[3] = target: B1

binding result [1] | binding result [2] | binding result [3] | Binder
no binding | no binding | – | B1
– | – | no binding | B2
– | – | no binding | B3
